Measurements: the supplement of paper PMC10567573
± gives the standard deviation.

Assay: protein stability index of a GFP-peptide fusion (GPS, HEK-293T) (PSI 1-6); higher = more stable
Conditions: c terminus: a fixed tail appended
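Note: 24-mer peptide tiles fused after GFP, lentivirally expressed, FACS-sorted into six equal bins by GFP/DsRed ratio, decoded by Illumina sequencing, PSI is the read-weighted mean bin number.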

Sequence | protein stability index (treatment: DMSO) | protein stability index (treatment: MLN4924 1 uM, 8 h)
ILLSKEPDGVWAYNRGEHPIFVNS [SMAD6] | 2.2 ± 0.19 | 2.44 ± 0.2
INHLLKSPFSVHPKTGRISVPIDL [PRIM1] | 2.06 ± 0.21 | 2.48 ± 0.17
IQSRVQELHPESGEEAVTLVEDMQ [ZNF263] | 5.42 ± 0.18 | 5.44 ± 0.11
IREEGRCSSSDDDTDVDMEGLRRR [PBXIP1] | 5.37 ± 0.25 | 5.42 ± 0.36
IRLTQYIDGQGRPRTSQSEETRVW [CAMK2B] | 3.13 ± 0.3 | 3.16 ± 0.14
ISEAFSQRVGFGDDFDEDELMAEL [CHMP4C] | 4.86 ± 0.32 | 5.07 ± 0.2
ISEEGHHYLIFDLVTGGELFEDIV [CAMK2A] | 2.47 ± 0.62 | 2.13 ± 0.29
ISENLDYEETGFYEIEIQAEDGGA [PCDHGA10] | 4.74 ± 0.18 | 4.7 ± 0.2
ISLINTRMLFWACSTNKPEGYRVS [FAF2] | 2.5 ± 0.61 | 2.35 ± 0.39
ISLWPREPPPKSGPSLVPGKTPTV [CD207] | 3.06 ± 0.18 | 3.43 ± 0.084
ITSETTSTTTTTHITKTVKGGISE [EPB41L3] | 5.06 ± 0.22 | 4.69 ± 0.79
IVIADVKLVADFQRYILYWRKRFT [ZNF277] | 2.48 ± 0.57 | 2.48 ± 0.46
IVTKFYQLSATGQKLYVRLFQRKL [FAN1] | 3.6 ± 0.98 | 2.57 ± 0.51
IVWSLAFGSSVPEKQSRCVNIEWH [WSB1] | 2.92 ± 0.36 | 2.93 ± 0.21
IWLAESVLDILTEQREWVLKSSIL [INTS3] | 2.88 ± 0.82 | 2.6 ± 0.84
IYQGEDLPHPKSMLQATAEANNLA [ATL3] | 4.25 ± 0.23 | 4.332 ± 0.041
KAAALPPFPLGASAQNGLASSLPA [PLAGL1] | 3.75 ± 0.21 | 3.82 ± 0.21
KAPKKDVIKMLVNDNKVLRYLAVL [EFHC1] | 2.65 ± 0.49 | 2.44 ± 0.58
KCFHEIITIGYRVYHSYDLPWFRT [CDS1] | 2.88 ± 0.49 | 2.87 ± 0.56
KDAYVQKLVKVCNGHDCWSLISLS [TENT5D] | 2.43 ± 0.41 | 2.14 ± 0.26
KEEAQAEIEQYRLQREKEFKAKEA [ATP6V1G1] | 5.5 ± 0.21 | 5.58 ± 0.38
KEEKCQGKGDDSETDKNNCSNAKA [KCNA4] | 5.49 ± 0.088 | 5.55 ± 0.19

Sequence | protein stability index (treatment: DMSO) | protein stability index (treatment: MLN4924 1 uM, 8 h)
KEILRTLQDVFCWLPLATLIDEKV [PPEF2] | 2.46 ± 0.25 | 3.03 ± 0.57
KETLRLHPDIFLPSEICDRLVNEY [ZER1] | 2.82 ± 0.39 | 2.83 ± 0.21
KFMLREQFEANGYFFKRPYPFVLF [KMT2E] | 3.41 ± 0.39 | 2.73 ± 0.97
KFSGLYILSFTVIMVGFILYCSTP [SLC35F2] | 3.22 ± 0.4 | 3.17 ± 0.24
KFSPFGQWWASVGMDDFLGVYSMP [TLE6] | 2.62 ± 0.67 | 2.35 ± 0.4
KGAVPRSIPNLAEVKKKGKMKKLG [HDAC6] | 4.51 ± 0.36 | 4.35 ± 0.5
KHPRQTLEVINLLRKHRELCDVVL [KLHL20] | 2.34 ± 0.43 | 2.17 ± 0.25
KKKTKVLKQRTVIEMFKSITHSTV [EHMT1] | 2.44 ± 0.35 | 2.19 ± 0.47
KKNWRRVYKSLLLLAYLIRNGSER [CLINT1] | 2.35 ± 0.65 | 2.44 ± 0.29
KKREKQREQMEQMKQRIAEENIMK [FAM50A] | 4.8 ± 0.18 | 4.78 ± 0.41
KKRFTRRSHLIGHQRTHSEEETYK [ZNF449] | 4.12 ± 0.42 | 4.23 ± 0.46
KKRKVDGLSTEAEQPFIPVEVLVD [PRAME] | 3.8 ± 0.52 | 4.04 ± 0.27
KKTVHYYAELGQCSVFPATDAPEQ [PLK2] | 3.6 ± 0.27 | 3.64 ± 0.31
KLRGPEPAATEAYGSGDTPGGPCD [TBX6] | 5.35 ± 0.21 | 5.28 ± 0.31
KLSSFYSLKLIKRLYVDKSLNLST [SERPINB5] | 2.46 ± 0.42 | 2.18 ± 0.36
KLTLENFYSNLILQHEERETRQKK [STK38L] | 3.24 ± 0.39 | 3.29 ± 0.46
KNIFRIRFHDPSPAQSHTLQANDV [NET1] | 2.76 ± 0.31 | 3.06 ± 0.24
KQKNAYIGTQGPLENTYRDFWLMV [PTPN9] | 2.44 ± 0.51 | 2.4 ± 0.36
KRQVPTEQARAYAEKNCMTFFEVS [RAB40C] | 3.16 ± 0.36 | 3.29 ± 0.37
KSMGLKKKAFVWARNIGFKVNSKK [ACSBG2] | 2.91 ± 0.3 | 2.83 ± 0.37
KTAGKENHFDMHRVGKWHQDFPVK [ZNF75A] | 3.09 ± 0.36 | 3.38 ± 0.13
KTTLARQLQHDFPRALIFSTDDFF [N4BP2L1] | 2.41 ± 0.28 | 2.53 ± 0.25

Sequence | protein stability index (treatment: DMSO) | protein stability index (treatment: MLN4924 1 uM, 8 h)
KVMKQPRCGVPDVAQFVLTEGNPR [MMP1] | 3.32 ± 0.1 | 3.38 ± 0.17
LADYLVPILAPRIFGSNKWTTEQQ [ARL6IP1] | 2.34 ± 0.49 | 2.16 ± 0.16
LANRLCLPHLVALTEQYTVTGLME [RHOBTB2] | 2.57 ± 0.6 | 2.43 ± 0.39
LAQTRAEGQRQAQEYEALLNIKVK [KRT18] | 4.26 ± 0.38 | 4.17 ± 0.15
LCAIAGVLTIALPVPVIVSNFNYF [KCNA1] | 3.23 ± 0.18 | 3.04 ± 0.32
LCKEMVPLAEQTPLTLQSQPKEPQ [ZSCAN9] | 5 ± 0.13 | 5.04 ± 0.24
LCQHFEAVHSGTPVTNNLLEKCKT [SPACA9] | 4.14 ± 0.13 | 4.19 ± 0.17
LCREEPVVQGPDGRLELKPLLLRL [FANCE] | 2.19 ± 0.25 | 2.48 ± 0.15
LDKLLQGGIETGSITEMFGEFRTG [RAD51] | 3.07 ± 0.26 | 3.06 ± 0.28
LDPVLQAPGTGPAQTELLCCLVKM [FANCE] | 2.47 ± 0.32 | 2.32 ± 0.49
LEAHCVEFLTKHLRADNAFMLLTQ [BTBD1] | 2.55 ± 0.76 | 2.81 ± 0.47
LEAQPYEAVFLRAVKLYNSGDFRS [P3H4] | 2.42 ± 0.27 | 2.23 ± 0.28
LEEDLYELFKKDPGFDRGQFHKQI [PI4K2A] | 3.56 ± 0.14 | 3.56 ± 0.19
LEEQLQGWGEVMLMADKVLRWERA [ARL6IP1] | 2.49 ± 0.31 | 2.49 ± 0.27
LEKDTMDNWDEKKLEEVVNKKHGE [ZC3H15] | 5.54 ± 0.095 | 5.46 ± 0.19
LEKESDTPLQQVSIEEILEEQRVE [LSM1] | 5.26 ± 0.26 | 5.53 ± 0.098
LEKGSFVGNISKDLGLAPRELAER [PCDHGA10] | 4.43 ± 0.35 | 4.54 ± 0.33
LFEGLGRDKAEELLQLPDTKVGSF [SLA] | 3.82 ± 0.28 | 4.13 ± 0.15
LFRCIQNMPETLPNNSCYSAGIAK [TNFSF13B] | 2.63 ± 0.3 | 2.68 ± 0.16
LFYDDYYEDGEVEEEADSCFGDDE [CDC34] | 4.79 ± 0.17 | 4.78 ± 0.3
LGHAAAFSDDCDLPSAQDINRLVG [GLT8D2] | 4.23 ± 0.18 | 4.43 ± 0.24
